Four molecules from patent publication US20120245104A1, “NOVEL RETRO-INVERSO LEPTIN PEPTIDE ANTAGONISTS” (priority 2011, published 2012) can be followed below.

The chains are these.
T1: leptin receptor (ObR) (UniProt P48357 22-1165, limits assumed)
T1 sequence (looked up): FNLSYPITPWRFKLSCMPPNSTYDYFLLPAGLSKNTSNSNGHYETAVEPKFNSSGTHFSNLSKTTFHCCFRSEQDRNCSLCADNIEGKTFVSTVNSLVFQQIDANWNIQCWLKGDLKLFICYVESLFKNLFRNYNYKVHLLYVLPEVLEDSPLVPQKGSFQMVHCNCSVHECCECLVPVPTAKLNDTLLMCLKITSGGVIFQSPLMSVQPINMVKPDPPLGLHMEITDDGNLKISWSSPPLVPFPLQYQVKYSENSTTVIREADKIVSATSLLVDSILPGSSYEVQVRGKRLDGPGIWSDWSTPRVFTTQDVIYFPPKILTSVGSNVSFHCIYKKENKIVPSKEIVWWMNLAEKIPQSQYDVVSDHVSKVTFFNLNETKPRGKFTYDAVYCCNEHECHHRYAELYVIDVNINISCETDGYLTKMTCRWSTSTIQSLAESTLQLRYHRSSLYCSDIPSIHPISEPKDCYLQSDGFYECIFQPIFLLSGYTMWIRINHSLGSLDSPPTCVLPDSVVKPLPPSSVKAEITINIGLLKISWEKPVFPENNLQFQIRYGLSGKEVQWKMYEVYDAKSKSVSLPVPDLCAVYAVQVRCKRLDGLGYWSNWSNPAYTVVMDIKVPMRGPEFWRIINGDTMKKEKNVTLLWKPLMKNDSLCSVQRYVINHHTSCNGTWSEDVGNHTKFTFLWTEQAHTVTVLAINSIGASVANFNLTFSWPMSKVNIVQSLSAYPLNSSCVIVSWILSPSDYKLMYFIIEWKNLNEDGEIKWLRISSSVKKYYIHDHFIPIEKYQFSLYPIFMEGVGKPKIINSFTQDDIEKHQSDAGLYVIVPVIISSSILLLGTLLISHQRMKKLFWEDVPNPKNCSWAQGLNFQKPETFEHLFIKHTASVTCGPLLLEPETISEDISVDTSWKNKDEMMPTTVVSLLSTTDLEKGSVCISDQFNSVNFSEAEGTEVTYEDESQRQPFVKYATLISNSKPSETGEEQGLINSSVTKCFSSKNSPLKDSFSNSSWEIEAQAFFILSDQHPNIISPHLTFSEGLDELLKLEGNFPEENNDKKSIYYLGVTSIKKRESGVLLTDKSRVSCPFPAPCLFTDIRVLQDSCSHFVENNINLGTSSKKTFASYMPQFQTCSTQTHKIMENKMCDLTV

B1: Retro-inverso LPA-1(24-6), D-T10 (peptide)
peptide: H-[dI][dD][dN][dI][dR][dT][dV][dI][dT][dK][dI][dL][dT][dK][dT][dD][dD][dQ][dV]-NH2
SMILES: CC[C@@H](C)[C@@H](N)C(=O)N[C@H](CC(=O)O)C(=O)N[C@H](CC(N)=O)C(=O)N[C@@H](C(=O)N[C@H](CCCNC(=N)N)C(=O)N[C@@H](C(=O)N[C@@H](C(=O)N[C@@H](C(=O)N[C@@H](C(=O)N[C@H](CCCCN)C(=O)N[C@@H](C(=O)N[C@H](CC(C)C)C(=O)N[C@@H](C(=O)N[C@H](CCCCN)C(=O)N[C@@H](C(=O)N[C@H](CC(=O)O)C(=O)N[C@H](CC(=O)O)C(=O)N[C@H](CCC(N)=O)C(=O)N[C@@H](C(N)=O)C(C)C)[C@H](C)O)[C@H](C)O)[C@H](C)CC)[C@H](C)O)[C@H](C)CC)C(C)C)[C@H](C)O)[C@H](C)CC
B2: Retro-inverso LPA-2(89-72), D-I79 (peptide)
peptide: H-[dV][dH][dL][dL][dD][dR][dL][dN][dE][dL][dI][dN][dS][dI][dQ][dI][dV][dN]-NH2
SMILES: CC[C@@H](C)[C@@H](NC(=O)[C@@H](CC(C)C)NC(=O)[C@@H](CCC(=O)O)NC(=O)[C@@H](CC(N)=O)NC(=O)[C@@H](CC(C)C)NC(=O)[C@@H](CCCNC(=N)N)NC(=O)[C@@H](CC(=O)O)NC(=O)[C@@H](CC(C)C)NC(=O)[C@@H](CC(C)C)NC(=O)[C@@H](Cc1c[nH]cn1)NC(=O)[C@H](N)C(C)C)C(=O)N[C@H](CC(N)=O)C(=O)N[C@H](CO)C(=O)N[C@@H](C(=O)N[C@H](CCC(N)=O)C(=O)N[C@@H](C(=O)N[C@@H](C(=O)N[C@H](CC(N)=O)C(N)=O)C(C)C)[C@H](C)CC)[C@H](C)CC
B3: Retro-inverso LPA-1(24-6), D-I10 (peptide)
peptide: H-[dI][dD][dN][dI][dR][dT][dV][dI][dT][dK][dI][dL][dT][dK][dI][dD][dD][dQ][dV]-NH2
SMILES: CC[C@@H](C)[C@@H](N)C(=O)N[C@H](CC(=O)O)C(=O)N[C@H](CC(N)=O)C(=O)N[C@@H](C(=O)N[C@H](CCCNC(=N)N)C(=O)N[C@@H](C(=O)N[C@@H](C(=O)N[C@@H](C(=O)N[C@@H](C(=O)N[C@H](CCCCN)C(=O)N[C@@H](C(=O)N[C@H](CC(C)C)C(=O)N[C@@H](C(=O)N[C@H](CCCCN)C(=O)N[C@@H](C(=O)N[C@H](CC(=O)O)C(=O)N[C@H](CC(=O)O)C(=O)N[C@H](CCC(N)=O)C(=O)N[C@@H](C(N)=O)C(C)C)[C@H](C)CC)[C@H](C)O)[C@H](C)CC)[C@H](C)O)[C@H](C)CC)C(C)C)[C@H](C)O)[C@H](C)CC
B4: Retro-inverso LPA-2(89-72), D-D79 (peptide)
peptide: H-[dV][dH][dL][dL][dD][dR][dL][dN][dE][dL][dD][dN][dS][dI][dQ][dI][dV][dN]-NH2
SMILES: CC[C@@H](C)[C@@H](NC(=O)[C@@H](CO)NC(=O)[C@@H](CC(N)=O)NC(=O)[C@@H](CC(=O)O)NC(=O)[C@@H](CC(C)C)NC(=O)[C@@H](CCC(=O)O)NC(=O)[C@@H](CC(N)=O)NC(=O)[C@@H](CC(C)C)NC(=O)[C@@H](CCCNC(=N)N)NC(=O)[C@@H](CC(=O)O)NC(=O)[C@@H](CC(C)C)NC(=O)[C@@H](CC(C)C)NC(=O)[C@@H](Cc1c[nH]cn1)NC(=O)[C@H](N)C(C)C)C(=O)N[C@H](CCC(N)=O)C(=O)N[C@@H](C(=O)N[C@@H](C(=O)N[C@H](CC(N)=O)C(N)=O)C(C)C)[C@H](C)CC

[ ]: non-standard residue; d: D form.

The test has as its target T1, leptin receptor (ObR). Put plainly: cell-based or functional assay.
On to B1, for which the “IC50, inhibition of leptin-induced growth of MCF-7 cells” value (shortened to “IC50, inhibition”) was 16.9 nM.

Consider B2, for which the “IC50, inhibition” value came to 9.7 nM. The value for B3 was 17.6 nM.

As to B4, the “IC50, inhibition” value was found to be 19.4 nM.
